Blank lines part the entries; values can stand above or below the molecule they belong to.
Experiments:
[1] = biological target: p65 subunit of NF-κB expressed from pCMV-p65 (Homo sapiens (Human)) (UniProt Q04206); test: cell-based or functional assay
[2] = biological target: T1, p65 subunit of NF-κB expressed from pCMV-p65 (Homo sapiens (Human), UniProt Q04206 1-551, limits assumed); test: co-immunoprecipitation from transfected BV-2 cells
T1 construct: pCMV-p65 was a gift; also called NF-κB p65; REL-A
T1 sequence (Q04206 whole entry S180P): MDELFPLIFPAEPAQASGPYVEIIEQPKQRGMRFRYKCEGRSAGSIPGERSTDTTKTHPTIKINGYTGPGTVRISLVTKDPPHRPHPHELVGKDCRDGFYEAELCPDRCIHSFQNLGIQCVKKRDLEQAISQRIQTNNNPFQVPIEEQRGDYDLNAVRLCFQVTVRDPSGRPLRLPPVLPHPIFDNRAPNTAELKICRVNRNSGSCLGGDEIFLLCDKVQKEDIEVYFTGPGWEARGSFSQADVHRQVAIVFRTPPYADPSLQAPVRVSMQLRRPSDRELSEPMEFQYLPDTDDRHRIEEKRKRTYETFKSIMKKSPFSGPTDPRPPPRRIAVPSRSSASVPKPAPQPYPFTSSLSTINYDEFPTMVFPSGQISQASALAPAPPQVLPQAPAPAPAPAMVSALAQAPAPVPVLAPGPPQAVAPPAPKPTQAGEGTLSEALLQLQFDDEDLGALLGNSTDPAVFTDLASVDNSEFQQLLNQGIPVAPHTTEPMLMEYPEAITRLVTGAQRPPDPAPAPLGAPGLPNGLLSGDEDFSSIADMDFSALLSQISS

[3] = biological target: T1, p65 subunit of NF-κB expressed from …; test: cell-based or functional assay

Sequence of p65 subunit of NF-κB expressed from pCMV-p65 (Homo sapiens (Human)) (Q04206 whole entry S180P): as above

- decrease in NF-κB activation (4κB^wt-luc) with TDP-43 siRNA versus scrambled siRNA, 5 ng pCMV-p65 [1]: 3 fold
- decrease in NF-κB activation (4κB^wt-luc) with TDP-43 siRNA versus scrambled siRNA, 50 ng pCMV-p65 [1]: 2 fold
- decrease in NF-κB activation (4κB^wt-luc) with TDP-43 siRNA versus scrambled siRNA, 10 and 20 ng pCMV-p65 [1]: 2.5 fold
Molecule: endogenous mouse TDP-43 (from UniProt Q921F2 1-414)

- binding result [2]: no binding
- level of NF-κB activation detected by the 4κB^wt-luc reporter assay [3]: 6 fold lower
B1: TDP-43^ΔNR1-30 (31-81 and 98-176 AAs), N-terminal and RRM-1 deletion mutant with the NLS signal attached (other)
chain: MSEYIRVTEDENDEPIEIPSEDDGTVLLSTKRKMDETDASSAVKVKLPNSKQSQDEPLRSRKVFVGRCTEDMTEDELREFFSQYGDVMDVFIPKPFRAFAFVTFADDQIAQSLCGEDLIIKGISVHISNAEPKHNSNRQLERSGRFGGNPGGFGNQGGFGNSRGGGAGLGNNQGSNMGGGMNFGAFSINPAMMAAAQAALQSSWGMMGMLASQQNQSGPSGNNQNQGNMQREPNQAFGSGNNSYSGSNSGAAIGWGSASNAGSGSGFNGGFGSSMDSKSSGWGM
notes: The printed ranges in brackets are read as the deleted residues (31-81 and 98-176); not shown: HA (hemagglutinin) tag at the extreme C-terminus

- NF-κB gene activation (4κB^wt-luc reporter), compared to full length TDP-43^wt [3]: 2 fold
B2: TDP-43^ΔN (1-105AAs), HA-tagged deletion mutant (other, not shown: small tags and cut ends)
chain: LIVLGLPWKTTEQDLKEYFSTFGEVLMVQVKKDLKTGHSKGFGFVRFTEYETQVKVMSQRHMIDGRWCDCKLPNSKQSQDEPLRSRKVFVGRCTEDMTEDELREFFSQYGDVMDVFIPKPFRAFAFVTFADDQIAQSLCGEDLIIKGISVHISNAEPKHNSNRQLERSGRFGGNPGGFGNQGGFGNSRGGGAGLGNNQGSNMGGGMNFGAFSINPAMMAAAQAALQSSWGMMGMLASQQNQSGPSGNNQNQGNMQREPNQAFGSGNNSYSGSNSGAAIGWGSASNAGSGSGFNGGFGSSMDSKSSGWGM
